{"source": "patent US20110033498", "key": {"poly-SUMO-2 chains (2-8)": {"target": "poly-SUMO-2 chains (2-8) (UniProt P61956)", "sequence (P61956 1-93)": "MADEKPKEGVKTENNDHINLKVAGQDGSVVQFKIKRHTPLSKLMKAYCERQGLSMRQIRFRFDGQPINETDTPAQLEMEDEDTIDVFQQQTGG"}, "pro-SUMO-1": {"target": "pro-SUMO-1 (UniProt P63165)", "sequence (P63165 whole entry)": "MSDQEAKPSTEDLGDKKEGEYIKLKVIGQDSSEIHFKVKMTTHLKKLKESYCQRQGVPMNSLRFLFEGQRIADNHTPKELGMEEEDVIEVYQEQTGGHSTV"}}, "data": [{"substance": "His6-SENP2CD (catalytic domain of SENP2)", "values": [{"measurement": "in vitro hydrolysis of poly-SUMO-2 chains, Coomassie staining", "setting": "poly-SUMO-2 chains (2-8)", "value": "the catalytic domain of SENP2 (SENP2CD), a SUMO-specific protease, could hydrolyze SUMO chains to monomers"}, {"measurement": "in vitro hydrolysis of poly-SUMO-2 chains, SDS-PAGE and Coomassie staining", "setting": "poly-SUMO-2 chains (2-8)", "value": "SENP2 reduced the chains to monomers"}, {"measurement": "in vitro processing of pro-SUMO-1, Coomassie staining", "setting": "pro-SUMO-1", "value": "could hydrolyze SUMO chains to monomers (FIG. 12D, lane 10) and process pro-SUMO-1"}, {"measurement": "in vitro hydrolysis of poly-SUMO-3 chains, Coomassie staining", "setting": "poly-SUMO-3 chains (2-8)", "value": "the catalytic domain of SENP2 (SENP2CD), a SUMO-specific protease, could hydrolyze SUMO chains to monomers"}, {"measurement": "in vitro hydrolysis of poly-SUMO-3 chains, anti-SUMO-3 Western blot", "setting": "poly-SUMO-3 chains (2-8)", "value": "An identical result was obtained when poly-SUMO-3(2-8) chains were tested"}]}]}
